The supplement of paper PMC9170038

Test system: MS2 coat protein
Test: apparent KD of MS2 coat protein; designed switch direction (-1 OFF switch, 1 ON switch): 1; higher = weaker reporter binding
Summary of the method: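 RNA switches sharing common flanks were transcribed by stalled E. coli RNA polymerase on Illumina chips. A doubling series of SNAP-549-labelled MS2 coat protein, from 0.7 or 1.5 nM to 3 µM, was applied in Tris-HCl pH 7.5 buffer with KCl, MgCl2, BSA, DTT, tRNA and Tween-20. Each step lasted 0.8–1.5 h at the bottom of the series and 10–20 min at the top. Normalised cluster fluorescence was curve-fitted, giving apparent KD as the per-design median over clusters.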

[1] = Eterna round: R95, input ligand: FMN 200 uM
[2] = Eterna round: R95, input ligand: microRNA oligo, concentration not stated
[3] = Eterna round: R95, input ligand: none
[4] = input ligand: microRNA oligo, concentration not stated

Row | Sequence | apparent KD of MS2 coat protein [1] [µM] | apparent KD of MS2 coat protein [2] [µM] | apparent KD of MS2 coat protein [3] [µM] | apparent KD of MS2 coat protein (input ligand: FMN 200 uM) [µM] | apparent KD of MS2 coat protein [4] [µM] | apparent KD of MS2 coat protein (input ligand: none) [µM]
1 | UUUGGGUGGCUGGAGGAUAUUCUUGUGGUUACAUGAGGAUCACCCAUGUGCCGCGCGGUGCGCGAGGAGAAGGCUGGCGGCCGUU (puzzle: Same State 2) | 0.0217 | 0.0483 | 0.0657 | – | – | –
2 | GUGUUACAUGAGGAUCACCCAUGUUGUUGUAGAUAAGGAUAUAUGGUAACGAGAGAAAUAAUAGAAGGUAUUAGGC [JR_SS1_Sub061] (puzzle: Same State 1) | – | 0.0347 | – | – | – | –
3 | GUUACAUGAGGAUCACCCAUGUAUGUGUGGGAGUAAGUGUCUUAGGAUAUCUAGUAUUUAACUUAAGAGAAGGAAGAUUGUUGU [JMF's solution 63] (Eterna round: R96, puzzle: Same State NG 3) | – | – | – | 0.142 | 0.0958 | 0.105
4 | CGGGAAAUCGUAGGAUAUCUAGGAUAUGAACGAGGAUCACCCGAGCAGCAUCAGCGCAUCAGAGGAGAGAAGGACGAUGAUGCG [pwkr ssNG2 2F5 2FMN.17] (Eterna round: R96, puzzle: Same State NG 2) | – | – | – | 0.327 | 0.273 | 0.0657
5 | AAUUUAAUACAUGAGGAUCACCCAUGUAAUACUUGUAAGAUCAAGGAUAUCAGCUCGUUUAGAGCUGAGAAGGUGAUCACAUGU [SSNG3/19-D3] (Eterna round: R96, puzzle: Same State NG 3) | – | – | – | – | 0.0407 | –
6 | GGAGCCGGCACCGAGGAUAUUCAUAUUAAAACAUGAGGAUCACCCAUGUAGAGCGAAAGCUCUUGGGAGAAGGCGGAUCGGCUCG [Xeonanis - 28] (Eterna round: R96, puzzle: Same State 2) | – | – | – | 0.0346 | 0.488 | 0.665
7 | AGUCCAGCGAAAGCUGGACAAAAGCAUGUACAUGAGGAUCACCCAUGUUCAUGUAUAAGCUUUUUGCUCGUCUUAAA [JL mod - D95 - 12] (puzzle: Sensor for hsa-mir-208a) | 0.0181 | 0.0092 | 0.0159 | – | – | –
8 | UGUUGUAUUACAGGAUAUCUAUGAUUUUUACUUAGAGAAGGGUAUUCACAUGAGGAUCACCCAUGUAUAUACGAGGAAGUUGUG [JMF's solution 67] (Eterna round: R96, puzzle: Same State NG 1) | – | – | – | 0.0472 | 0.0351 | 0.0442
9 | AGUCCAGCCUGAGCUGGACAAAAGCAUGUACAUGAGGAUCACCCAUGUUCAUGUACAAGCUUUUUGCAAGUCAAAAG [Mat - hsa-mir-208a - Mod of JL - 75] (puzzle: Sensor for hsa-mir-208a) | 0.337 | 0.0256 | 0.71 | – | – | –
10 | GGCUAUCGCGUACGAUAGCUUAGGCAUGUACAUGAGGAUCACCCAUGUCAUGUACAGGCUUUUUGCUCGUCUUAUUG [JL-shm-2.36 JL mod] (puzzle: Sensor for hsa-mir-208a) | 0.179 | 0.0167 | 0.21 | – | – | –
11 | UACAAUCUAUCUGAGGAUAUCAUGAAAAAAACAUGAGGAUCACCCAUGUGCAGGAAAACUGCAUAUGAGAAGGCAGAUAGAUUGA [salish99_SS2_r3_005] (Eterna round: R96, puzzle: Same State 2) | – | – | – | – | 0.517 | –
12 | GCGGAACAUGAGGAUCACCCAUGUGGAGGGUGUAAAGGAUAUUAUAGAGAGAAGGUAGGGUAAGAAGGUUGCUGGG [JR_SS1_Sub090] (Eterna round: R96, puzzle: Same State 1) | – | – | – | 0.899 | 0.582 | 0.994
13 | GCUGGAAACCACAUGAGGAUCACCCAUGUUCCGGAAACGGCGCAGGAUAUCUGUCCGAAAAGGUCAGAGAAGGGUGAAACCAGC [Fiskers NG3ss - 80] (Eterna round: R96, puzzle: Same State NG 3) | – | – | – | 0.6 | 0.387 | 0.346
14 | AAGUAGGAGUUACAGGAUAUAUGGAGGAGGACAUGAGGAUCACCCAUGUGAGAGAUGAGAGGAGGAUAGAAGGGUAAGGGAGUAA [JR_SS2_Sub027] (puzzle: Same State 2) | 0.0241 | 0.0209 | 0.032 | – | – | –
15 | AGCUAUUAAUCAGGAUAUGGUCACAUGAGGAUCACCCAUGUAUCGAUGAUAUGAUGUGGUCAAUACUAGAAGGGAUUGCUAACA [SameState NG2 #64] (Eterna round: R96, puzzle: Same State NG 2) | – | – | – | 0.18 | 0.104 | 0.152
16 | GUAGCAUACCGAGGAUAUUCAUUAAACAUGAGGAUCACCCAUGUAAAUUAUAGGCGAAAGCCUUGGGAGAAGGCGGAAUGCUAC [Xeonanis - 20 Mod72] (Eterna round: R96, puzzle: Same State NG 2) | – | – | – | 0.011 | 0.0113 | 0.0191
17 | GCUGCAAUAAACGCCUACAUGAGGAUCACCCAUGUAUGUAGGCAGGAUAUCGUAUGCAAAGCAUACGAGAAGGGCCGUAGUAGC [Mat - Same State NG 3 - JL Mod - D36] (Eterna round: R96, puzzle: Same State NG 3) | – | – | – | 0.0264 | 0.0444 | 0.0566
18 | GUGGUCAGACAUGAGGAUCACCCAUGUGGAAUAAAUAAGGAAUAGGAUAUCGAAUAUAGGAUAUACGAGAAGGGUUGGUUGGUG (Eterna round: R96, puzzle: Same State NG 3) | – | – | – | – | 0.08 | –
19 | UUGCUCGUGUGAGGAUAUGCCGCCGUUUCGGCUGCAGAAGGUACUCUAAUACAUGAGGAUCACCCAUGUCUCUGUUGUUUCGUG [salish99_SSNG1_r04_935] (Eterna round: R96, puzzle: Same State NG 1) | – | – | – | 0.0867 | 0.0524 | 0.0809
20 | UACAAUCUAUCUGAGGAUAUCAUGAAUAAAACAUGAGGAUCACCCAUGUGCAGGAUAACUGCAAAUGAGAAGGCAGAUAGAUUGU [Mat - Same State 2 - Mod - D8] (puzzle: Same State 2) | 0.0135 | 0.016 | 0.0241 | – | – | –
21 | AUUGCUUUCGCAGGAUAUGAUGCGAAAAUUGCGUCAGAAGGGUGGAGUAUCUCAUUGCAACAGGACAUGAGGAUCACCCAUGUC [SameState NG1 #88] (Eterna round: R96, puzzle: Same State NG 1) | – | – | – | 0.0567 | 0.14 | 0.247
22 | AGCGCGAUCUCGCAGGAUAUCCACAUUCCUACAUGAGGAUCACCCAUGUCGCUGCAGGAUAUUAGGGAGAAGGGUGAUGUCGCGC [Arxeinor] (puzzle: Same State 2) | 0.0214 | 0.0326 | 0.0348 | – | – | –
23 | GUCCGGCUGCCACAGGAUAUACGUGGAUCGACAUGAGGAUCACCCAUGUAUAUCCUAAUAAUUGCGUAGAAGGGUGGUCAGCCGG [Dionbe] (puzzle: Same State 2) | 0.0783 | 0.54 | 1.18 | – | – | –
24 | GGAGAGAGAGCGCAGGAUAUUCGAGGAGAAACAUGAGGAUCACCCAUGUGAGAGAGAGAGGAGAAGGAGAAGGGUGAGAGAGAGG [Altered State 2-14 - Jieux - Same State 2] (puzzle: Same State 2) | 0.147 | 0.0349 | 0.0326 | – | – | –
25 | CUGAGCAAUCAAGGAUAUCACGUCGAUUAGACGUGAGAAGGUGAUCAUAACAUGAGGAUCACCCAUGUAUUACAUGAAGCUCAG [SSNG1/1-A2] (Eterna round: R96, puzzle: Same State NG 1) | – | – | – | 0.975 | 0.692 | 0.74
26 | AUAAGGCAAGCUUUUUUCUCGUAGUGUAAACAUGAGGAUCACCCAUGUGCCCACCCUGGAUCUUUGAAUCGCAGAAC [Dianancete] (puzzle: Sensor for hsa-mir-208a) | 0.0267 | 0.0166 | 0.0273 | – | – | –
27 | UCUUGGUUUUUGCUCGUUUUUUGUGUUGAACAUGAGGAUCACCCAUGUAUUGUACGGUCCAGUUUGGUGGUAGUCCG [JMF 71] (puzzle: Sensor for hsa-mir-208a) | 0.0329 | 0.0244 | 0.038 | – | – | –
28 | UCUGCAAGAACAGGAUAUGGGUUCAGAGCGGGAGUGCGCUUUGACACAUGAGGAUCACCCAUGUCCCAGAAGGGUUCAUGCGGC [Eseseste] (Eterna round: R96, puzzle: Same State NG 2) | – | – | – | 0.0627 | 0.484 | 0.364
